Tested on: Escherichia coli TOP10
Assay: shrunken log2 fold change of peptide-encoding DNA abundance (4.5 h post-induction vs induction); higher = less antimicrobial activity (less host growth inhibition)
Settings: time post-induction: 4.5 h; library: site-saturation at positions 5, 18, 19, 20
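Further: peptides expressed intracellularly from a pBAD plasmid library in pooled LB shake-flask culture, induced with 0.3% L-arabinose, DNA abundance read by NGS, three biological replicates, DESeq2 with apeglm shrinkage.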

Going from RRIRFRPPRLPRPRPRPNLCPRP to RRIRFRPPRLPRPRPRPNLNPRP, the “shrunken log2 fold change” value falls from 0.00999 to -0.504.

Compared with RRIRFRPPRLPRPRPRPNMDPRP, RRIRFRPPRLPRPRPRPNMEPRP is lower in “shrunken log2 fold change” value: 1.48 for the first, -0.129 for the second.

RRIRFRPPRLPRPRPRPNNAPRP and RRIRFRPPRLPRPRPRPNNFPRP are within 0.2 log units of each other in “shrunken log2 fold change” value: -0.271 for the first, -0.383 for the second.

Compared with RRIRFRPPRLPRPRPRPNNLPRP, RRIRFRPPRLPRPRPRPNNSPRP is lower in “shrunken log2 fold change” value: -0.12 for the first, -0.685 for the second.

Compared with RRIRFRPPRLPRPRPRPNPMPRP, RRIRFRPPRLPRPRPRPNPPPRP is higher in “shrunken log2 fold change” value: -0.136 for the first, 0.544 for the second.

Compared with RRIRFRPPRLPRPRPRPNQPPRP, RRIRFRPPRLPRPRPRPNQRPRP is higher in “shrunken log2 fold change” value: -0.136 for the first, 0.269 for the second.

Compared with RRIRFRPPRLPRPRPRPNRYPRP, RRIRFRPPRLPRPRPRPNVFPRP is higher in “shrunken log2 fold change” value: -0.319 for the first, -0.108 for the second.

RRIRFRPPRLPRPRPRPNVIPRP and RRIRFRPPRLPRPRPRPNWWPRP are within 0.2 log units of each other in “shrunken log2 fold change” value: -0.173 for the first, -0.0248 for the second.

Compared with RRIRFRPPRLPRPRPRPNYSPRP, RRIRFRPPRLPRPRPRPPCFPRP is higher in “shrunken log2 fold change” value: -0.8 for the first, -0.0777 for the second.

Compared with RRIRFRPPRLPRPRPRPPDAPRP, RRIRFRPPRLPRPRPRPPDRPRP is lower in “shrunken log2 fold change” value: 0.451 for the first, 0.128 for the second.

Compared with RRIRFRPPRLPRPRPRPPFEPRP, RRIRFRPPRLPRPRPRPPFYPRP is lower in “shrunken log2 fold change” value: 0.347 for the first, -0.462 for the second.

Going from RRIRFRPPRLPRPRPRPPGLPRP to RRIRFRPPRLPRPRPRPPGPPRP, the “shrunken log2 fold change” value rises from 0.573 to 0.897.

Going from RRIRFRPPRLPRPRPRPPHWPRP to RRIRFRPPRLPRPRPRPPIAPRP, the “shrunken log2 fold change” value falls from 0.617 to 0.31.

RRIRFRPPRLPRPRPRPPIQPRP and RRIRFRPPRLPRPRPRPPMNPRP are within 0.2 log units of each other in “shrunken log2 fold change” value: 0.0333 for the first, -0.0762 for the second.

Going from RRIRFRPPRLPRPRPRPPPNPRP to RRIRFRPPRLPRPRPRPPQKPRP, the “shrunken log2 fold change” value falls from 1.33 to 0.719.

Compared with RRIRFRPPRLPRPRPRPPQTPRP, RRIRFRPPRLPRPRPRPPQVPRP is lower in “shrunken log2 fold change” value: 0.473 for the first, -0.00567 for the second.

RRIRFRPPRLPRPRPRPPRGPRP and RRIRFRPPRLPRPRPRPPRSPRP are within 0.2 log units of each other in “shrunken log2 fold change” value: 0.685 for the first, 0.488 for the second.

Compared with RRIRFRPPRLPRPRPRPPSTPRP, RRIRFRPPRLPRPRPRPPVHPRP is lower in “shrunken log2 fold change” value: 0.342 for the first, 0.119 for the second.

Going from RRIRFRPPRLPRPRPRPPWGPRP to RRIRFRPPRLPRPRPRPPWHPRP, the “shrunken log2 fold change” value falls from 0.399 to 0.087.

Going from RRIRFRPPRLPRPRPRPPWMPRP to RRIRFRPPRLPRPRPRPQAAPRP, the “shrunken log2 fold change” value rises from 0.355 to 1.04.

RRIRFRPPRLPRPRPRPQAVPRP and RRIRFRPPRLPRPRPRPQCIPRP are within 0.2 log units of each other in “shrunken log2 fold change” value: 0.0175 for the first, -0.0639 for the second.

First: RRIRFRPPRLPRPRPRPQDDPRP
Second: RRIRFRPPRLPRPRPRPQDEPRP
The “shrunken log2 fold change” value of the first is lower: -0.493 for the first, -0.0187 for the second.

Going from RRIRFRPPRLPRPRPRPQDRPRP to RRIRFRPPRLPRPRPRPQFMPRP, the “shrunken log2 fold change” value falls from -0.591 to -1.06.

RRIRFRPPRLPRPRPRPQGDPRP and RRIRFRPPRLPRPRPRPQGPPRP are within 0.2 log units of each other in “shrunken log2 fold change” value: 0.014 for the first, 0.0563 for the second.

RRIRFRPPRLPRPRPRPQIDPRP and RRIRFRPPRLPRPRPRPQIGPRP are within 0.2 log units of each other in “shrunken log2 fold change” value: 0.0185 for the first, -0.128 for the second.

Going from RRIRFRPPRLPRPRPRPQLCPRP to RRIRFRPPRLPRPRPRPQPQPRP, the “shrunken log2 fold change” value rises from -0.0465 to 0.301.

RRIRFRPPRLPRPRPRPQRTPRP and RRIRFRPPRLPRPRPRPQSWPRP are within 0.2 log units of each other in “shrunken log2 fold change” value: -0.101 for the first, -0.0287 for the second.

Going from RRIRFRPPRLPRPRPRPQVTPRP to RRIRFRPPRLPRPRPRPQWVPRP, the “shrunken log2 fold change” value rises from -0.367 to -0.053.

Going from RRIRFRPPRLPRPRPRPQWYPRP to RRIRFRPPRLPRPRPRPRAFPRP, the “shrunken log2 fold change” value rises from -0.981 to 0.0447.

Going from RRIRFRPPRLPRPRPRPRCRPRP to RRIRFRPPRLPRPRPRPRDKPRP, the “shrunken log2 fold change” value falls from 0.109 to -0.102.

RRIRFRPPRLPRPRPRPREGPRP and RRIRFRPPRLPRPRPRPRESPRP are within 0.2 log units of each other in “shrunken log2 fold change” value: 0.285 for the first, 0.45 for the second.

Going from RRIRFRPPRLPRPRPRPRFAPRP to RRIRFRPPRLPRPRPRPRFNPRP, the “shrunken log2 fold change” value falls from 0.366 to -0.196.

RRIRFRPPRLPRPRPRPRGHPRP and RRIRFRPPRLPRPRPRPRIAPRP are within 0.2 log units of each other in “shrunken log2 fold change” value: 0.348 for the first, 0.214 for the second.

RRIRFRPPRLPRPRPRPRKIPRP and RRIRFRPPRLPRPRPRPRLMPRP are within 0.2 log units of each other in “shrunken log2 fold change” value: 0.0429 for the first, -0.0982 for the second.

Compared with RRIRFRPPRLPRPRPRPRLSPRP, RRIRFRPPRLPRPRPRPRMTPRP is higher in “shrunken log2 fold change” value: -0.194 for the first, 0.128 for the second.

Compared with RRIRFRPPRLPRPRPRPRPFPRP, RRIRFRPPRLPRPRPRPRPKPRP is higher in “shrunken log2 fold change” value: 0.401 for the first, 0.98 for the second.

RRIRFRPPRLPRPRPRPRRCPRP and RRIRFRPPRLPRPRPRPRRSPRP are within 0.2 log units of each other in “shrunken log2 fold change” value: 0.143 for the first, 0.0713 for the second.

For RRIRFRPPRLPRPRPRPRSRPRP, the “shrunken log2 fold change” value was -0.016.
